T1: Ox40/mFc (UniProt P43489 29-214)
T1 construct: Bought fusion protein; also called Ox40/mFc (AXXORA 1588)
T1 sequence (looked up): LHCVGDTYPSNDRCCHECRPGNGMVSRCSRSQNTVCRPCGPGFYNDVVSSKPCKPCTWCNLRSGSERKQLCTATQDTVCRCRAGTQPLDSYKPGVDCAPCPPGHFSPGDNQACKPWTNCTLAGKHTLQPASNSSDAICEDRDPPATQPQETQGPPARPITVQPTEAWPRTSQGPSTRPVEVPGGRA


Key:
TNF = biological target: T2, TNF (human, UniProt P01375 77-233); test: SPR, Biacore 3000; sample captured by anti-human CH1 antibody, TNF as analyte
T2 construct: also called TNF (Strathmann hTNFa); hTNFa
Experimental: (§1) Covalent immobilisation of the capture antibody was achieved by standard amine coupling chemistry.
(§2) After each cycle, the capture surface was regenerated with 2×1 min injections of 40 mM HCl followed by 30 s of 5 mM NaOH. The flow rates used were 10 μl/min for capture, 30 μl/min for association and dissociation phases, and 10 μl/min for regeneration.
(§3) Kinetic parameters were determined by simultaneous global-fitting of the resulting sensorgrams to a standard 1:1 binding model using Biacore 3000 Evaluation Software v3.2

human serum albumin [1] = biological target: T3, human serum albumin (human, UniProt P02768 25-609); test: SPR, Biacore 3000; construct captured by anti-human CH1 antibody, 50 nM HSA alone
T3 construct: Bought protein; also called HSA
Experimental: as §1, §2

Ox40/mFc = biological target: T1, Ox40/mFc; test: SPR, Biacore 3000; construct captured by anti-human CH1 antibody, 20 nM Ox40/mFc alone
Experimental: as §1, §2

human serum albumin [2] = biological target: T3, human serum albumin; test: SPR, Biacore T100; sample captured by anti-human CH1 antibody, HSA as analyte
Experimental: as §1, §2
A blank flow-cell was used for reference subtraction and buffer-blank injections were included to subtract instrument noise and drift.

IL-6 [3] = biological target: T4, IL-6 (UniProt P05231 30-212, limits assumed); test: SPR, Biacore T100; sample captured by anti-human CH1 antibody, IL-6 as analyte
human serum albumin [4] = biological target: T3, human serum albumin; test: SPR, Biacore T100; sample captured by anti-human CH1 antibody, HSA as analyte, 1:1 fit
Experimental: as §1, §2
Kinetic parameters were determined by simultaneous global-fitting of the resulting sensorgrams to a standard 1:1 binding model using Biacore T100 Evaluation Software v2.0.1.

IL-6 [5] = biological target: T4, IL-6; test: SPR, Biacore T100; sample captured by anti-human CH1 antibody, IL-6 as analyte; kinetics not given
IL13 = biological target: T5, IL13 (UniProt P35225 35-146, limits assumed); test: SPR, Biacore 3000; sample captured by anti-human CH1 antibody, IL13 as analyte
T5 construct: also called IL13 (R&D 213IL)
Experimental: as §1, §2, §3

Binder	Affinity (fold loss against the parent) (TNF)	Stoichiometry (TNF)	Response RU (human serum albumin [1])	Response RU (Ox40/mFc)	Stoichiometry (human serum albumin [2])	Stoichiometry (IL-6 [3])	Kd (human serum albumin [4])	koff (human serum albumin [4])	kon (human serum albumin [4])	RU of binding (IL-6 [5])	Affinity (fold loss against the parent) (IL13)	Stoichiometry (IL13)
A26Fab-(3xG4S)-645dsFv-(3xG4S)-870Fv (other, Trispecific Fab-Fv-Fv (OX40, HSA, TNF); terminal 870 Fv without a disulfide (-DS read as Fv); HEK293 supernatant; also called A26-645-870-DS; A26Fab-645Fv-652/870Fv) heavy: EVQLVESGGGLVQPGGSLRLSCAASGFTFTNYGIHWIRQAPGKGLEWVASISPSGGLTYYRDSVKGRFTISRDDAKNSPYLQMNSLRAEDTAVYYCATGGEGIFDYWGQGTLVTVSSASTKGPSVFPLAPSSKSTSGGTAALGCLVKDYFPEPVTVSWNSGALTSGVHTFPAVLQSSGLYSLSSVVTVPSSSLGTQTYICNVNHKPSNTKVDKKVEPKSCSGGGGSGGGGSGGGGSEVQLLESGGGLVQPGGSLRLSCAVSGIDLSNYAINWVRQAPGKCLEWIGIIWASGTTFYATWAKGRFTISRDSTTVYLQMNSLRAEDTAVYYCARTVPGYSTAPYFDLWGQGTLVTVSSGGGGSGGGGSGGGGSEVQLVESGGGLVQPGGSLRLSCAASGYVFTDYGMNWVRQAPGKGLEWMGWINTYIGEPIYADSVKGRFTFSLDTSKSTAYLQMNSLRAEDTAVYYCARGYRSYAMDYWGQGTLVTVSS light: DIQMTQSPSSLSASVGDRVTITCRATQSIYNALAWYQQKPGKAPKLLIYNANTLHTGVPSRFSASGSGTDSTLTISSLQPEDFATYYCQQYYDYPLTFGGGTKVEIKRTVAAPSVFIFPPSDEQLKSGTASVVCLLNNFYPREAKVQWKVDNALQSGNSQESVTEQDSKDSTYSLSSTLTLSKADYEKHKVYACEVTHQGLSSPVTKSFNRGECSGGGGSGGGGSGGGGSDIVMTQSPSSVSASVGDRVTITCQSSPSVWSNFLSWYQQKPGKAPKLLIYEASKLTSGVPSRFKGSGSGTDFTLTISSLQPEDFATYYCGGGYSSISDTTFGCGTKVEIKGGGGSGGGGSGGGGSDIQMTQSPSSLSASVGDRVTITCKASQNVGTNVAWYQQKPGKAPKALIYSASFLYSGVPYRFSGSGSGTDFTLTISSLQPEDFATYYCQQYNIYPLTFGQGTKVEIK	2 fold	0.39	11 RU	31 RU								
A26Fab-(3xG4S)-645dsFv-(3xG4S)-652Fv (other, Trispecific Fab-Fv-Fv (OX40, HSA, IL13); terminal 652 Fv without a disulfide (-DS read as Fv); HEK293 supernatant; also called A26-645-652-DS; A26Fab-645Fv-652/870Fv) heavy: EVQLVESGGGLVQPGGSLRLSCAASGFTFTNYGIHWIRQAPGKGLEWVASISPSGGLTYYRDSVKGRFTISRDDAKNSPYLQMNSLRAEDTAVYYCATGGEGIFDYWGQGTLVTVSSASTKGPSVFPLAPSSKSTSGGTAALGCLVKDYFPEPVTVSWNSGALTSGVHTFPAVLQSSGLYSLSSVVTVPSSSLGTQTYICNVNHKPSNTKVDKKVEPKSCSGGGGSGGGGSGGGGSEVQLLESGGGLVQPGGSLRLSCAVSGIDLSNYAINWVRQAPGKCLEWIGIIWASGTTFYATWAKGRFTISRDSTTVYLQMNSLRAEDTAVYYCARTVPGYSTAPYFDLWGQGTLVTVSSGGGGSGGGGSGGGGSQVTLKESGPVLVKPTETLTLTCTVSGFSLTNYHVQWIRQPPGKALEWLGVMWSDGDTSFNSVLKSRLTISRDTSKSQVVLTMTNMDPVDTATYYCARDGTIAAMDYFDYWGQGTLVTVSS light: DIQMTQSPSSLSASVGDRVTITCRATQSIYNALAWYQQKPGKAPKLLIYNANTLHTGVPSRFSASGSGTDSTLTISSLQPEDFATYYCQQYYDYPLTFGGGTKVEIKRTVAAPSVFIFPPSDEQLKSGTASVVCLLNNFYPREAKVQWKVDNALQSGNSQESVTEQDSKDSTYSLSSTLTLSKADYEKHKVYACEVTHQGLSSPVTKSFNRGECSGGGGSGGGGSGGGGSDIVMTQSPSSVSASVGDRVTITCQSSPSVWSNFLSWYQQKPGKAPKLLIYEASKLTSGVPSRFKGSGSGTDFTLTISSLQPEDFATYYCGGGYSSISDTTFGCGTKVEIKGGGGSGGGGSGGGGSDIQMTQSPSSLSASVGDRVTITCLASEDISNYLAWYQQKPGKAPKLLIYHTSRLQDGVPSRFSGSGSGTDFTLTISSLQPEDFATYYCQQGYRFPLTFGGGTKVEIK			12 RU	42 RU								0.95

Further lines, results first:

Affinity (fold loss against the parent) (TNF)	Stoichiometry (TNF)	Response RU (human serum albumin [1])	Response RU (Ox40/mFc)	Stoichiometry (human serum albumin [2])	Stoichiometry (IL-6 [3])	Kd (human serum albumin [4])	koff (human serum albumin [4])	kon (human serum albumin [4])	RU of binding (IL-6 [5])	Affinity (fold loss against the parent) (IL13)	Stoichiometry (IL13)	Binder
				0.39	0.06	11.3 nM	0.000379 s⁻¹	33400 M⁻¹ s⁻¹	1 RU			A26Fab 645Fv 1G4S 1189Fv (other, Trispecific Fab-Fv-Fv (OX40, HSA, IL-6); second linker 1xG4S; HEK293 supernatant; also called A26Fab-645Fv-1189Fv; FabFvFv) heavy: EVQLVESGGGLVQPGGSLRLSCAASGFTFTNYGIHWIRQAPGKGLEWVASISPSGGLTYYRDSVKGRFTISRDDAKNSPYLQMNSLRAEDTAVYYCATGGEGIFDYWGQGTLVTVSSASTKGPSVFPLAPSSKSTSGGTAALGCLVKDYFPEPVTVSWNSGALTSGVHTFPAVLQSSGLYSLSSVVTVPSSSLGTQTYICNVNHKPSNTKVDKKVEPKSCSGGGGSGGGGSGGGGSEVQLLESGGGLVQPGGSLRLSCAVSGIDLSNYAINWVRQAPGKCLEWIGIIWASGTTFYATWAKGRFTISRDSTTVYLQMNSLRAEDTAVYYCARTVPGYSTAPYFDLWGQGTLVTVSSGGGGSEVQLVESGGGLVQPGGSLRLSCAASGFTFNDYDMAWVRQAPGKCLEWVASITPSGGGTYYRDSVKGRFTISRDNAKNSLYLQMNSLRAEDTAVYYCARHGYTLDYFEYWGQGTMVTVSS light: DIQMTQSPSSLSASVGDRVTITCRATQSIYNALAWYQQKPGKAPKLLIYNANTLHTGVPSRFSASGSGTDSTLTISSLQPEDFATYYCQQYYDYPLTFGGGTKVEIKRTVAAPSVFIFPPSDEQLKSGTASVVCLLNNFYPREAKVQWKVDNALQSGNSQESVTEQDSKDSTYSLSSTLTLSKADYEKHKVYACEVTHQGLSSPVTKSFNRGECSGGGGSGGGGSGGGGSDIVMTQSPSSVSASVGDRVTITCQSSPSVWSNFLSWYQQKPGKAPKLLIYEASKLTSGVPSRFKGSGSGTDFTLTISSLQPEDFATYYCGGGYSSISDTTFGCGTKVEIKGGGGSDIQMTQSPSSLSASVGDRVTITCLASEGISNDLAWYQQKPGKAPKLLIYDATRLQDGVPSRFSGSGSGTDFTLTISSLQPEDFATYYCQQSYKYPWTFGCGTKLEIK
		11 RU	39 RU							2 fold	0.88	A26Fab-(3xG4S)-645dsFv-(3xG4S)-652dsFv (other, Trispecific Fab-Fv-Fv (OX40, HSA, IL13); terminal 652 Fv with a disulfide (+DS read as dsFv); HEK293 supernatant; also called A26-645-652+DS; A26Fab-645Fv-652/870Fv) heavy: EVQLVESGGGLVQPGGSLRLSCAASGFTFTNYGIHWIRQAPGKGLEWVASISPSGGLTYYRDSVKGRFTISRDDAKNSPYLQMNSLRAEDTAVYYCATGGEGIFDYWGQGTLVTVSSASTKGPSVFPLAPSSKSTSGGTAALGCLVKDYFPEPVTVSWNSGALTSGVHTFPAVLQSSGLYSLSSVVTVPSSSLGTQTYICNVNHKPSNTKVDKKVEPKSCSGGGGSGGGGSGGGGSEVQLLESGGGLVQPGGSLRLSCAVSGIDLSNYAINWVRQAPGKCLEWIGIIWASGTTFYATWAKGRFTISRDSTTVYLQMNSLRAEDTAVYYCARTVPGYSTAPYFDLWGQGTLVTVSSGGGGSGGGGSGGGGSQVTLKESGPVLVKPTETLTLTCTVSGFSLTNYHVQWIRQPPGKCLEWLGVMWSDGDTSFNSVLKSRLTISRDTSKSQVVLTMTNMDPVDTATYYCARDGTIAAMDYFDYWGQGTLVTVSS light: DIQMTQSPSSLSASVGDRVTITCRATQSIYNALAWYQQKPGKAPKLLIYNANTLHTGVPSRFSASGSGTDSTLTISSLQPEDFATYYCQQYYDYPLTFGGGTKVEIKRTVAAPSVFIFPPSDEQLKSGTASVVCLLNNFYPREAKVQWKVDNALQSGNSQESVTEQDSKDSTYSLSSTLTLSKADYEKHKVYACEVTHQGLSSPVTKSFNRGECSGGGGSGGGGSGGGGSDIVMTQSPSSVSASVGDRVTITCQSSPSVWSNFLSWYQQKPGKAPKLLIYEASKLTSGVPSRFKGSGSGTDFTLTISSLQPEDFATYYCGGGYSSISDTTFGCGTKVEIKGGGGSGGGGSGGGGSDIQMTQSPSSLSASVGDRVTITCLASEDISNYLAWYQQKPGKAPKLLIYHTSRLQDGVPSRFSGSGSGTDFTLTISSLQPEDFATYYCQQGYRFPLTFGCGTKVEIKR
